How the values were obtained:
HDAC9a-FLAG [1] = target: T1, HDAC9a-FLAG (Homo sapiens, UniProt Q9UKV0); test: HDAC enzymatic assay, 3H-acetic acid released from 3H-histones; format: biochemical; design: made in house; host or cells: human kidney 293T cells, transient transfection, anti-FLAG M2 agarose immunoprecipitation, elution with FLAG peptide; settings: 3H-histones substrate; SAHA 2 μM (FIG. 8); preincubated 30 minutes at 4° C.
Experimental: The reaction was stopped by the addition of 1M HCl/0.1 acetic acid. Released ^3H-acetic acid was extracted with ethyl acetate and quantified by scintillation counting. For inhibition studies, the immunoprecipitated complexes were preincubated with the different HDAC inhibitors for 30 minutes at 4° C.

HDAC9a-FLAG [2] = target: T1, HDAC9a-FLAG; settings: FLUOR DE LYS substrate; TSA 1 μM (FIG. 7), preincubated 15 minutes at room temperature; SAHA concentration not given
HDAC9-FLAG = HDAC9-FLAG (Homo sapiens, UniProt Q9UKV0); settings: FLUOR DE LYS substrate; TSA 1 μM (FIG. 7), preincubated 15 minutes at room temperature; SAHA concentration not given
[3] = HDAC enzymatic activity of immunoprecipitated HDAC9/HDAC9a compared with HDAC4; format: biochemical; settings: comparable amount of protein; immunoprecipitated from 293T cells
[4] = system: MEF2C mediated transcriptional activation; test: p3XMEF2-luciferase reporter assay in 293T cells; format: cell-based, human; settings: p3XMEF2-Luc; for repression of MEF2C mediated transcriptional activation: 1 ng, 10 ng, or 100 ng of plasmid; for MEF2C mediated transcriptional activation at the 100 ng dose: 100 ng plasmid
Experimental: It was then determined whether HDAC9 and HDAC9a repress MEF2-mediated transcription. This determination was carried out as follows. The p3XMEF2-luciferase reporter gene (100 ng) and the vector pRL-TK (Promega) (5 ng) were co-transfected into 293T cells in the absence (pcDNA3 empty vector) or presence of MEF2C (100 ng of pCMV-MEF2C). HDAC9-F (1 ng, 10 ng, or 100 ng of pFLAG-HDAC9; pFLAG-HDAC9 and HDAC9-FLAG are different constructs, with the FLAG sequence located at opposite ends of the HDAC9 nucleotide, but are functionally equivalent) or HDAC9a-F (1 ng, 10 ng, or 100 ng of pFLAG-HDAC9a; pFLAG-HDAC9a and HDAC9a-FLAG are different constructs, with the FLAG sequence located at opposite ends of the HDAC9a nucleotide, but are functionally equivalent) was included in a subset of experimental groups with the MEF2C vector. pFLAG empty vector was used to adjust the DNA to an equal amount in each transfection. The cells were harvested 24 to 36 hours after transfection and the luciferase activities were measured using the Dual-Luciferase™ Reporter Assay System from Promega according to the manufacturer's instruction. The firefly luciferase activity was first normalized to the co-transfected Renilla luciferase activity (encoded by the pRL-TK vector), and the luciferase activity value for cells transfected with MEF2C alone was set at 1. MEF2C activated transcription over 30 times the basal level of transcription. […] The transcriptional repression effect of HDAC9 and HDAC9a on MEF2C mediated transcription was a specific effect since a co-transfected reporter gene for transfection efficiency containing a TK promoter was not repressed by HDAC9 or HDAC9a.

MEF2 = test: Anti-FLAG immunoprecipitation and anti-MEF2 Western blot; format: binding, human; settings: 293T cells, anti-FLAG IP, anti-MEF2 Western
Experimental: The Xenopus homolog of HDRP, MITR, was identified as a MEF2 interacting transcriptional repressor (Sparrow et al., EMBO J. 18:5085-5098(1999)) and mouse HDRP also interacts with and represses MEF2 mediated transcription (Zhang et al., J. Biol. Chem. 276:35-39 (2001)). […] 293 cells were transfected with vector, HDAC9-FLAG, or HDAC9a-FLAG. […] Western blot analysis of the immunoprecipitated proteins was carried out, using anti-MEF-2 antibody to probe the blot.

inhibition of histone deacetylase activity of HDAC9a-FLAG (HDAC9a-FLAG [1]) | inhibition of HDAC9a deacetylase activity (HDAC9a-FLAG [2]) | inhibition of HDAC9 deacetylase activity (HDAC9-FLAG) | Molecule | HDAC activity relative to the deacetylase activity of HDAC4 [3] | repression of MEF2C mediated transcriptional activation [4] | MEF2C mediated transcriptional activation at the 100 ng dose [4] | interaction with MEF2 (MEF2)
completely inhibited | completely inhibited | completely inhibited | O=C(CCCCCCC(=O)Nc1ccccc1)NO [SAHA, suberoylanilide hydroxamic acid] |  |  |  | 
 |  |  | HDAC9a: alternatively spliced isoform of HDAC9, 879 amino acids (SEQ ID NO: 4); tested as FLAG-tagged protein (protein, listed as Homo sapiens, FLAG tag, tested as FLAG-tagged protein) MHSMISSVDVKSEVPVGLEPISPLDLRTDLRMMMPVVDPVVREKQLQQELLLIQQQQQIQKQLLIAEFQKQHENLTRQHQAQLQEHIKELLAIKQQQELLEKEQKLEQQRQEQEVERHRREQQLPPLRGKDRGRERAVASTEVKQKLQEFLLSKSATKDTPTNGKNHSVSRHPKLWYTAAHHTSLDQSSPPLSGTSPSYKYTLPGAQDAKDDFPLRKTASEPNLKVRSRLKQKVAERRSSPLLRRKDGNVVTSFKKRMFEVTESSVSSSSPGSGPSSPNNGPTGSVTENETSVLPPTPHAEQMVSQQRILIHEDSMNLLSLYTSPSLPNITLGLPAVPSQLNASNSLKEKQKCETQTLRQGVPLPGQYGGSIPASSSHPHVTLEGKPPNSSHQALLQHLLLKEQMRQQKLLVAGGVPLHPQSPLATKERISPGIRGTHKLPRHRPLNRTQSAPLPQSTLAQLVIQQQHQQFLEKQKQYQQQIHMNKLLSKSIEQLKQPGSHLEEAEEELQGDQAMQEDRAPSSGNSTRSDSSACVDDTLGQVGAVKVKEEPVDSDEDAQIQEMESGEQAAFMQQPFLEPTHTRALSVRQAPLAAVGMDGLEKHRLVSRTHSSPAASVLPHPAMDRPLQPGSATGIAYDPLMLKHQCVCGNSTTHPEHAGRIQSIWSRLQETGLLNKCERIQGRKASLEEIQLVHSEHHSLLYGTNPLDGQKLDPRILLGDDSQKFFSSLPCGGLGVDSDTIWNELHSSGAARMAVGCVIELASKVASGELKNGFAVVRPPGHHAEESTAMGFCFFNSVAITAKYLRDQLNISKILIVDLDVHHGNGTQQAFYADPSILYISLHRYDEGNFFPGSGAPNEVRFISLEPHFYLYLSGNCIA | about ten times lower | in a dose-dependent manner | completely abolished | interacted with MEF2
 |  |  | HDAC9: novel class II histone deacetylase, 1011 amino acids (SEQ ID NO: 2); tested as FLAG-tagged protein (protein, listed as Homo sapiens, FLAG tag, tested as FLAG-tagged protein) MHSMISSVDVKSEVPVGLEPISPLDLRTDLRMMMPVVDPVVREKQLQQELLLIQQQQQIQKQLLIAEFQKQHENLTRQHQAQLQEHIKELLAIKQQQELLEKEQKLEQQRQEQEVERHRREQQLPPLRGKDRGRERAVASTEVKQKLQEFLLSKSATKDTPTNGKNHSVSRHPKLWYTAAHHTSLDQSSPPLSGTSPSYKYTLPGAQDAKDDFPLRKTASEPNLKVRSRLKQKVAERRSSPLLRRKDGNVVTSFKKRMFEVTESSVSSSSPGSGPSSPNNGPTGSVTENETSVLPPTPHAEQMVSQQRILIHEDSMNLLSLYTSPSLPNITLGLPAVPSQLNASNSLKEKQKCETQTLRQGVPLPGQYGGSIPASSSHPHVTLEGKPPNSSHQALLQHLLLKEQMRQQKLLVAGGVPLHPQSPLATKERISPGIRGTHKLPRHRPLNRTQSAPLPQSTLAQLVIQQQHQQFLEKQKQYQQQIHMNKLLSKSIEQLKQPGSHLEEAEEELQGDQAMQEDRAPSSGNSTRSDSSACVDDTLGQVGAVKVKEEPVDSDEDAQIQEMESGEQAAFMQQPFLEPTHTRALSVRQAPLAAVGMDGLEKHRLVSRTHSSPAASVLPHPAMDRPLQPGSATGIAYDPLMLKHQCVCGNSTTHPEHAGRIQSIWSRLQETGLLNKCERIQGRKASLEEIQLVHSEHHSLLYGTNPLDGQKLDPRILLGDDSQKFFSSLPCGGLGVDSDTIWNELHSSGAARMAVGCVIELASKVASGELKNGFAVVRPPGHHAEESTAMGFCFFNSVAITAKYLRDQLNISKILIVDLDVHHGNGTQQAFYADPSILYISLHRYDEGNFFPGSGAPNEVGTGLGEGYNINIAWTGGLDPPMGDVEYLEAFRTIVKPVAKEFDPDMVLVSAGFDALEGHTPPLGGYKVTAKCFGHLTKQLMTLADGRVVLALEGGHDLTAICDASEACVNALLGNELEPLAEDILHQSPNMNAVISLQKIIEIQSMSLKFS | about ten times lower | in a dose-dependent manner | completely abolished | interacted with MEF2

From US7816499B2, “Antibodies that selectively bind HDAC9” (Sloan-Kettering Institute for Cancer Research, priority 2001, dated 2010)
